Results on one molecule are retold here after patent US20260137799A1, “ANTI-MUC1* ANTIBODY DRUG COMPLEXES AND USES THEREOF” (Minerva Biotechnologies Corporation, priority 2023, published 2026).

For one series, the target named is MUC1*45 (UniProt P15941 1110-1255). In words: cell-based or functional assay.
A further series relates to T47D. Kind of series: xCELLigence impedance cytotoxicity, T47D. To be noted: Example 9 (FIGS. 35-36); average over batches for DXd ADCs; read-out: IC50 for killing of breast cancer T47D-wt cells. The class given is cell-based, human. In short, it runs like this: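 Adherent target cells plated at 5000/well on electrode plates were grown 24 h, then exposed to serially diluted ADCs in growth medium at 37° C/5% CO2. Killing was followed as real-time impedance loss over 40-120 h, normalized to 1% triton or 1 μM Taxol as 100% kill.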

The next series deals with T47D-MUC1*. Kind of series: xCELLigence impedance cytotoxicity, T47D-MUC1*. The class given is cell-based, human. To be noted: Example 9 (FIGS. 35-36); read-out: IC50, T47D cells engineered to express more MUC1*45. As to the method: (§1) An xCELLigence RTCA MP Instrument (Agilent) was used to assess real-time killing of target cancer cells). In the xCELLigence system, target cancer cells, which are adherent, are plated onto electrode array 96-well plates. Adherent cells insulate the electrode and increase the impedance. The number of adherent cancer cells is directly proportional to impedance. […] Therefore, increasing impedance reflects the growth of the cancer cells and decreasing impedance reflects the killing of the cancer cells.
(§2) Target Cancer cells (Table 9) were seeded onto a multi-electrode well plate at a density of 5000 cells/well (100 μL of a 50,000 cells/mL stock) and incubated for 24 hr in a 37° C./5% CO2 incubator. ADCs were prepared as a 2× solution in corresponding growth media and 100 μL of each concentration was added to target cells. As a positive control (100% cell killing) cells were treated with either 1% triton or 1 μM Taxol instead of ADC. After 40-120 hours incubation in a 37° C./5% CO2 incubator cell killing was assessed. In this assay, impedance is measured in real-time. When the adherent cancer cells are killed and come off the electrode surface, impedance (insulation) decreases.

In another series the test system is NCI-H1975. In words: xCELLigence impedance cytotoxicity, NCI-H1975. Format: cell-based, human. As to conditions: Example 9 (FIGS. 35-36); read-out: IC50 for killing of H1975-wt cells. The protocol:
as §1, §2

In series [1] the test system is CFPAC1-wt pancreatic cancer cell line. In words: xCELLigence impedance cytotoxicity, CFPAC1. As to conditions: Example 9 (FIGS. 35-36); read-out: IC50, CFPAC1-wt pancreatic cancer cells. The class given is cell-based, human. As to the method:
as §1, §2
(§3) To directly compare the C2 and 3C2B1 anti-MUC1* antibodies as ADC targeting domains, a panel of MUC1* positive cancer cell lines representing different cancer types were treated with C2-deruxtecan versus 3C2B1-deruxtecan (FIG. 35) or C2-MC-VA-PAB-exatecan versus 3C2B1-MC-VA-PAB-exatecan (FIG. 36). In some cases, the cancer cells were engineered to express high levels of MUC1*45.

Series [2] has as its system H2110-wt lung cancer cell line. In words: xCELLigence impedance cytotoxicity, H2110. As to conditions: Example 9 (FIGS. 35-36); read-out: IC50, lung cancer H2110-wt cells. Format: cell-based, human. As to the method: as §1, §2, §3
For series [3], the system named is breast cancer, pancreatic cancer, and lung cancer cell lines. Kind of series: Cytotoxicity of ADCs with additional linkers and toxins (FIGS. 30-31). The class given is cell-based. To be noted: breast cancer, pancreatic cancer, and lung cancer cells. As to the method:
FIG. 30 is a table showing cytotoxicity of the indicated MUC1* ADCs against indicated cancer cells. IC50 values were determined from xCELLigence data. FIG. 30 discloses “GGFG” as SEQ ID NO: 160, “GGGG” as SEQ ID NO: 161, “GGVA” as SEQ ID NO: 162, “GGVG” as SEQ ID NO: 163.
FIG. 31 is a table showing cytotoxicity of the indicated MUC1* ADCs against indicated cancer cells. IC50 values were determined from PrestoBlue data.
An anti-MUC1* antibody was conjugated to several toxins via a number of different linkers (compounds VIII-XXII).

Series [4] deals with MUC1* negative HEK-293-TN cells. Kind of series: Bystander killing of non-target cells. The class given is cell-based. The protocol: The cell population was doped with H1975-MUC1*45-GFP cells as indicated. FIGS. 31A1-31A20 show the effect of C2-MC-GGFG-AM-DXd (SEQ ID NO: 160) on the non-target cells. […] FIGS. 31C1-31C20 show the effect of C2-MC-VA-PAB-exatecan on the non-target cells.
FIGS. 33A-33H show graphs of the integrated pixel density of non-target cancer cells as a function of doping cell population with cells expressing high amounts of MUC1*45. FIGS. 33A-33D show the effect when the cells were treated with C2-MC-GGFG-AM-DXd (SEQ ID NO: 160). FIGS. 33E-33H show the effect when the cells were treated with C2-MC-VA-PAB-exatecan.
In another experiment, we investigated the killing of off-target cells (MUC1* negative HEK-293-TN cells) as well as low antigen expressing target cells (H1975 lung cancer) due to a “bystander” effect (FIGS. 32A1-32D20, FIGS. 33A-33H and FIGS. 34A-34H). To assess the killing of non-target cells adjacent to cells with high MUC1* expression, we doped non-target cells expressing an mCherry marker with varying percentages of target cells that express GFP. 56 nM C2-MC-VA-PAB-exatecan killed nearly all the neighboring non-target cells when the cell population was doped with 30% of the high antigen expressing target cells (FIG. 32C17). […]

Series [5] concerns low MUC1* expressing, mCherry H1975 lung cancer cells. Kind of series: Bystander killing of low antigen expressing cancer cells. Format: cell-based, human. To be noted: 56 nM ADC; population contained 30% high MUC1* expressing H1975-MUC1*-GFP cells.

B1: C2-MC-VA-PAB-exatecan (antibody, mouse IgG1, kappa)
VH: EVQLEESGGGLVKPGGSLKLSCAASGFTFSGYAMSWVRQTPEKRLEWVATISSGGTYIYYPDSVKGRFTISRDNAKNTLYLQMSSLRSEDTAMYYCARLGGDNYYEYFDVWGAGTTVTVSSAKTTPPSVYAKTTPPSVYPLAPGSAAQTNSMVTLGCLVKGYFPEPVTVTWNSGSLSSGVHTFPAVLQSDLYTLSSSVTVPSSTWPSETVTCNVAHPASSTKVDKKIVPRDCGCKPCICTVPEVSSVFIFPPKPKDVLTITLTPKVTCVVVDISKDDPEVQFSWFVDDVEVHTAQTQPREEQFNSTFRSVSELPIMHQDWLNGKEFKCRVNSAAFPAPIEKTISKTKGRPKAPQVYTIPPPKEQMAKDKVSLTCMITDFFPEDITVEWQWNGQPAENYKNTQPIMDTDGSYFVYSKLNVQKSNWEAGNTFTCSVLHEGLHNHHTEKSLSHSPGK
VL: DIVITQSTASLGVSLGQRATISCRASKSVSTSGYSYMHWYQQRPGQPPKLLIYLASNLESGVPARFSGSGSGTDFTLNIHPVEEEDAATYYCQHSRELPFTFGGGTKLEIKRADAAPTVSADAAPTVSIFPPSSEQLTSGGASVVCFLNNFYPKDINVKWKIDGSERQNGVLNSWTDQDSKDSTYSMSSTLTLTKDEYERHNSYTCEATHKTSTSPIVKSFNRNEC
modifications: MC-VA-PAB-exatecan on reduced cysteine thiols of the antibody, sites not stated; MC-VA-PAB-exatecan on reduced cysteine thiols of the antibody, sites not stated; DAR 5.1
As a reminder, the IC50 is the midpoint of a concentration-inhibition curve. For the molecule B1, the “IC50, killing of H1975 cells engineered to express MUC1*45 (xCELLigence)” value with MUC1*45 was 9 nM. Besides, the IC50 in the series on T47D is 44 nM; in the series on T47D-MUC1* it was 4 nM; in the series on NCI-H1975 it was 117 nM; in [1], 51 nM; in series [2] it was 60 nM. The “activity compared to deruxtecan ADC” value in [3] is recorded as “enhanced activity”. The “killing of neighboring non-target cells” value in series [4] (56 nM ADC, population doped with 30% H1975-MUC1*45-GFP target cells, 120 hours) is “nearly all”. The non-specific cytotoxicity result in series [4] (pure populations of non-target HEK-293-TN cells) was “limited amount of non-specific cytotoxicity”. Besides, the “low MUC1* expressing cancer cells killed” value in series [5] is “about 75%”.
